Assay results reported in patent US20250027068.

Target: pooled human IgG (human IgG1,2,3 and 4)

Protein | Enzyme Activity Endpoint Assay (purified): Fab′2 | Enzyme Activity Endpoint Assay (purified): Fc | Enzyme Activity Endpoint Assay (purified): IgG | Enzyme Activity Endpoint Assay (purified): scIgG | Enzyme activity endpoint: Fab′2 | Enzyme activity endpoint: Fc | Enzyme activity endpoint: IgG | Enzyme activity endpoint: scIgG
PRT-459 (protein) MVTSVWTKGVTPPTDFIKGEDVFHAPYKAGQGWYDITKAFDGGDDLLCGAATAGNMLHWWFDQNKDQIERYLKEHPEKQKINFNGEQMFDVKEAIDTKDSQTNSELFNYFKEKAFPYLSTKHLGVFPDHVLDMFINGYRLSLTNHGPTPVKEGSKDPRGGIFDAVFTRGDQSKLLTSRHDFKEKTLKEISDLIKQELTEGKALGLSHTYANVRINHVINLWGADFDSEGNLKAIYVTDSDSNASIGMKKYFVGVNSAGKVAISAKEIKEDNIGAQVLGLFTLSTGQDIWNQTNLEHHHHHH | 137 ng/µL | 193 ng/µL | 373 ng/µL | 415 ng/µL |  |  |  | 
PRT-488 (protein) MVTSVWTKGVTPPTDFRKIVDGNIAYYHAPYKAGQGWYDITKAFDGGDNLLCGAATAGNMLHWWFDQNKDQIERYLKEHPEKQKIIFNNQELFDLKAAIDTKDSQTNSELFNYFKEKAFPYLSTKHLGVFPDHVLDMFINGYRLSLTNHGPTPVKEGSKDKRGGIFDAVFTRGVQSKLLTSRHDLKNKTLKEISDLIKQELTEGKALGLSHTYANVRINHVINLWGADFDSEGNLKAIYVTDSDTNASIGMKKYFVGVNSAGKVAISAKEIKEDNIGAQVLGLFTLSTGQDIWNQTNLEHHHHHH | 134 ng/µL | 246 ng/µL | 216 ng/µL | 803 ng/µL |  |  |  | 
PRT-507 (protein) MITSVWTKGVTPPTDFIKGEDVFHAPYKAGQGWYDITKAFDGGDDLLCGAATAGNMLHWWFDQNKEEIEAYLKKHPEKQKIMFGDQELLDVRKVINTKDSQTNSALFNYFKDKAFPNLSARRLGVMPDLVLDMFINGYYLNVYKTQTTDVNRTYQTKDRRGGIFDAVFTRGDQSKLLTERHDFKEKTLKEISDLIKQELTEGKALGLSHTYANVRINHVINLWGADFDSNGNLEAIYVTDSDSNASIGMKKYFVGVNSAGKVAISAKEIKEDNIGAQVLGLFTLSTGQDIWNQTNLEHHHHHH | 927 ng/µL | 355 ng/µL | 112 ng/µL | 0 ng/µL |  |  |  | 
PRT-524 (protein) MITSVWTKGVTPPTDFRKIVDGNIAYYHAPYKAGQGWYDITKAFDGGDNLLCGAATAGNMLHWWFDQNKEEIEAYLKKHPEKQKIIFNNQELFDLKAVINTKDSQTNSALFNYFKDKAFPNLSARRLGVFPDLVLDMFINGYYLNVYKTQTTDVNRTYQTKDRRGGIFDAVFTRGVQSKLLTERHDLKNKTLKEISDLIKQELTEGKALGLSHTYANVRINHVINLWGADFDSNGNLEAIYVTDSDTNASIGMKKYFVGVNSAGKVAISAKEIKEDNIGAQVLGLFTLSTGQDIWNQTNLEHHHHHH | 474 ng/µL | 285 ng/µL | 676 ng/µL | 0 ng/µL |  |  |  | 
PRT-505 (protein) MVTSVWTKGVTPPTDFIKGEDVFHAPYKAGQGWYDITKAFDGGDDLLCGAATAGNMLHWWFDQNKEYIEAYLKKHPEKQKIMFGDQELLDVRKAINTKGSQKNSELFNYFRDKAFPNLSARRLGVMPDLVLDMFINGYYLNVTKTQTTDVNRQEQEKDKRGGIFDAVFGRGDQTKLLTSRHDLKNKGLKEISDLIKQELTEGKALGLSHTYANVRINHVINLWGADFDSDGNLKAIYVTDSDSNASIGMKKYFVGVNSAGKVAISAKEIKEDNIGAQVLGLFTLSTGQKIWNKTNLEHHHHHH | 37 ng/µL | 148 ng/µL | 609 ng/µL | 752 ng/µL |  |  |  | 
PRT-499 (protein) MVTSVWTKGVTPPADFRKIVDGNIAYYHAPYVANQGWYDITKTFNGKDDLLCGAATAGNMLHWWFDQNKEYIEAYLKKHPEKQKIMFGDQELLDVRKAINTKGSQKNSELFNYFRDKAFPNLSARRLGVMPDLVLDMFINGYYLNVTKTQTTDVNRTYQEKDKRGGIFDAVFTRGDQSKLLTSRHDLKNKGLKEISDLIKQELTEGKALGLSHTYANVRINHVINLWGADFDSDGNLKAIYVTDSDSNASIGMKKYFVGVNSAGKVAISAKEIKEDNIGAQVLGLFTLSTGQDIWNQTNLEHHHHHH | 637 ng/µL | 365 ng/µL | 436 ng/µL | 45 ng/µL |  |  |  | 
PRT-689 (protein) MQITSVWTKGVTPLTMDQFTNNNEDVIHAPYKPGQGWYDITKTFDGKDNLLCGAATAGNMLHWWFDQNKEEIENYLKKHPEKQKIIFNNQKLFDLRKAINTKDSQTNSALFNYFRDKAFPNLSARQLGVMPDLVLDMFINGYYLNVFKTQSTDVNREYQTKDKRGGIFDDVFGRGDQTTLLTARHDLKNGGLNDISQIIKQELSSGKALALSHTYANVSISHVINLWGADFNEEGNLEAIYVTDSDANASIGMKKYYVGKNAHGKVAISAKKIEGENIGAQVLGLFTLSSGKEIWQKLSLEHHHHHH | 335 ng/µL | 248 ng/µL | 376 ng/µL | 174 ng/µL |  |  |  | 
PRT-683 (protein) MQITSVWTKGVTPLTPEQFRYNNEDVIHAPYLAHQGWYDITKAFNGKDNLLCGAATAGNMLHWWFDQNKEEIEAYLKKHPEKQKIIFNNQELFDLRKAINTKDSQTNSQLFNYFRDKAFPNLSARQLGVMPDLVLDMFINGYYLNVFKTQSTDVNRPYQDKDKRGGIFDHVFTRGDQTTLLTARHDLKNKTLNDISQIIKQELQEGKALALSHTYANVSISHVINLWGADFNAEGNLEAIYVTDSDANASIGMKKYFVGKNAHGHVAISAKKIEGENIGAQVLGLFTLSSGKEIWQKLSLEHHHHHH |  |  |  |  | 1100 ng/µL | 570 ng/µL | 0 ng/µL | 0 ng/µL
PRT-617 (protein) MQITSVWTKGVTPLTPEQFRYNNEDVIHAPYLPHQGWYDITKAFDGGDNLLCGAATAGNMLHWWFDQNKTEIEAYLSKYPEKQKIIFNNQELFDLRAAINSKDSQTNSQLFNYFRDKAFPNLSARQLGVMPDLVLDMFINGYYLNVFKTQSTDVNRPYQDPDKRGGIFDDVFKEGDQTTLLTARHDLKNGGLNDISTIIKQELQSGRALALSHTYANVSISHVINLWGADFNAEGNLEAIYVTDSDANQSIGMKKYKVGINAHGHVAISAKKIEGENIGAQVLGLFTLSSGKEIWQKLSLEHHHHHH |  |  |  |  | 630 ng/µL | 34 ng/µL | 798 ng/µL | 25 ng/µL
PRT-675 (protein) MQITSVWTKGVTPPTMDDFTINGEDVFHAPYVANQGWYDITKTFNGKDDLLCGAATAGNMLHWWFDQNKEQIERYLKKHPEKQKIIFNNQEMFDLKEAINTKDSQTDSKLFNYFRDKAFPNLSARQLGVMPDHVLDMFINGYYLNLTKTQSTDVNRPEDTKDLRGGIFDHVFTRGDQSKLLTARHDLKNKTLKEISDLIKQELTEGKALGLSHTYANVRISHVINLWGADFDAEGNLEAIYVTDSDSNASIGMKKYYVGVNSAGKVAISAKKIEGDNIGAQVLGLYTLSTGKDIWQKLSLEHHHHHH |  |  |  |  | 448 ng/µL | 400 ng/µL | 229 ng/µL | 456 ng/µL
PRT-673 (protein) MQITSVWTKGVTPPTPEQFRYYNEDVLHAPYKPHQGWYDITKTFNGKDNLLCGAATAGNMLHWWFDQNKTQIEAYLKKYPEKQKIIFNNQKMFDLRKAINTKDSQTNSALFSYFKDKAFPNLSARQRGVMPDLVLDMFINGYYLNVGKTQSTDVNRPYQTRDKRGGIFDHVFGRGDQTKLLTARHDLKNKTLNEISQLIKQELSEGKALALSHTYANVSISHVINLWGADFNAEGNLEAIYVTDSDSDAKIGMKKYYVGKNASGKVAISAKKIEGENIGAQVLGLYTLSTGKDIWQKLSLEHHHHHH |  |  |  |  | 34 ng/µL | 252 ng/µL | 601 ng/µL | 989 ng/µL
PRT-613 (protein) MQITTVWTKGVTPLTPEQFRYNNEDVIHAPYLAHQGWYDITKAFDGKDNLLCGAATAGNMLHWWFDQNKTEIEAYLSKHPEKQKIIFNNQELFDLKAAISTKDSQTNSQLFNYFRDKAFPNLSARQLGVMPDLVLDMFINGYYLNVFKTQSTDVNRPYQDKDKRGGIFDDVFTRGDQTTLLTARHDLKNGGLNDISTIIKQELTNGRALALSHTYANVSISHVINLWGADFNAEGNLEAIYVTDSDANARIGMKKYGVGINAHGHVAISAKKIEGENIGAQVLGLFTLSSGKDIWQKLSLEHHHHHH |  |  |  |  | 686 ng/µL | 433 ng/µL | 15 ng/µL | 251 ng/µL
PRT-695 (protein) MTITTVWTKGVTPPTPEDFRYNNEDVLHAPYVPNQGWYDITKTFDGKDNLLCGAATAGNMLHWWFDQNKEEIERYLKKYPEKQKIIFNNQELFDVRAAINTKDSQTNSKLFNYFRDKAFPNLSARQLGVMPDLVLDMFINGYYLNLGKTQSTDVNRPYQDRDKRGGIFDAVFNRGDQTTLLTARHDLKNKGLNEISDLIKQELSSGKALALSHTYANVRINHVINLWGADFDAEGNLIAIYVTDSDANASIGMKKYYVGVNANGKVAISAKKIEGDNIGAQVLGLFTLSTGQDIWQKLSLEHHHHHH |  |  |  |  | 781 ng/µL | 433 ng/µL | 66 ng/µL | 0 ng/µL
PRT-531 (protein) MANQEIRYSEDTPSHITSVWTKGVTPPTQFIQNEDVLHAPYIANQGWYDITKTFNGKDDLLCGAATAGNMLHWWFDQNKEQIEAYLKKYPEKQKINFNGEQMFDVKEAIDTKDSQTDSALFNYFRDKAFPNLSTKHLGVMPDHVIDMFINGYRLNLGNHGPTPVKNQTKDLRGGIFDAVFTRGDQSKLLTARHDFKEKTLKEISQLIKQELTEGKALALSHTYANVRINHVINLWGADFNAEGNLEAIYVTDSDSNASIGMKKYYVGVNAAGKVAISAKEIEGDNIGAQVLGLFTLSSGQDIWQQTNLEHHHHHH |  |  |  |  | 756 ng/µL | 212 ng/µL | 0 ng/µL | 0 ng/µL
